{
  "source": "patent EP3263700A1",
  "assay_in_all_cases": "cell-based or functional assay",
  "key": {"[1]": {"molecular_target": "purified human coagulation factor X (zymogen) (human) (UniProt P00742)", "sequence (P00742 41-179 limits assumed, chain 1 of 2)": "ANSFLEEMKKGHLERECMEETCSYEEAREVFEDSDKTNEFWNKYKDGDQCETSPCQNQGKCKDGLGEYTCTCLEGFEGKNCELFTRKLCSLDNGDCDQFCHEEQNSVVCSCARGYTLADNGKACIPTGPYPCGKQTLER", "sequence (P00742 183-488 limits assumed, chain 2 of 2)": "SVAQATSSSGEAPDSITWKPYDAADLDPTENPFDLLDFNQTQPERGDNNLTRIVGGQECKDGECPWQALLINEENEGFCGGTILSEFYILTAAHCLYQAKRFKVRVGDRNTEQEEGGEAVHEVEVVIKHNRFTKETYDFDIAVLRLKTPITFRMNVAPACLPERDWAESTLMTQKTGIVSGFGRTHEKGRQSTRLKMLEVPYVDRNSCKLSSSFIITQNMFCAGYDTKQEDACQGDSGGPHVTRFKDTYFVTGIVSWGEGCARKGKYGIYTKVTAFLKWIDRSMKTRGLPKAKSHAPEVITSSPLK"}, "[2]": {"molecular_target": "purified coagulation factor IX (zymogen)"}, "[3]": {"molecular_target": "purified coagulation factor VII (zymogen)"}},
  "data": [
    {"substance": "C. canimorsus DPP7 (Capnocytophaga canimorsus 5 dipeptidyl peptidase 7) with a C-terminal Strep-His tag (enzyme)", "values": [
      {"measurement": "PT (prothrombin time) in factor deficient plasma", "setting": "[1]", "result": 10, "unit": "fold"},
      {"measurement": "aPTT in factor deficient plasma", "setting": "[2]", "result": 2, "unit": "fold"},
      {"measurement": "PT (prothrombin time) in factor deficient plasma", "setting": "[3]", "result": 30, "unit": "%"}
    ]}
  ]
}
